Assay results: US20130052739
Where two headings read alike, the source gives them in different places.

What was measured:
[1] = target: T1, FLP recombinase (native yeast) (Saccharomyces cerevisiae) (UniProt P03870); test: cleavage_in_vitro
T1 sequence: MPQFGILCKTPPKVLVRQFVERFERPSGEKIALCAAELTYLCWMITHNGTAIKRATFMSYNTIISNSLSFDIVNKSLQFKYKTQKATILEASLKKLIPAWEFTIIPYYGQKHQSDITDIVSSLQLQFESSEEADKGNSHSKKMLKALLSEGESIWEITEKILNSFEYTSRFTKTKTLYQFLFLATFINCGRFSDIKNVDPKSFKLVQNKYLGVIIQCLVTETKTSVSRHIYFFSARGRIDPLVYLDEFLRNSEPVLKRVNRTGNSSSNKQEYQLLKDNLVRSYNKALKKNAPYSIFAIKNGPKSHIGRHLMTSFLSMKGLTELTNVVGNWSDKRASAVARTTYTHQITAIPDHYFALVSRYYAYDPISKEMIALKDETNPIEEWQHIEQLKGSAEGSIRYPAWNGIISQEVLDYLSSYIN

[2] = target: T1, FLP recombinase (native yeast) (Saccharomyces cerevisiae)

Sequence	activity (% excision efficiency relative to FRT1) ([1]; 30 C, 10 mM MgCl2)	further results
AGTTCCTATACTATACAAAGAATAGGAACT (double strand) [FRT70]	25	
AGTTCCTATACTCCACAGAGAATAGGAACT (double strand) [FRT55]	7	
AGTTCCTATACTCTATGTAGAATAGGAACT (double strand) [FRT12]	102	
AGTTCCTATACTCTCTAGAGAATAGGAACT (double strand) [FRT89]	39	
AGTTCCTATACTCTCTTGAGAATAGGAACT (double strand) [FRT45]	5	
AGTTCCTATACTCTTTTGAGAATAGGAACT (double strand) [FRT5]	15	activity (% co-integrants at 2 h) ([2]; in vitro co-integration FRT5+FRT5, 10 mM MgCl2, 5 mM DTT): 0.09
AGTTCCTATACTGAAAAGAGAATAGGAACT (double strand) [FRT78]	60	
AGTTCCTATACTGAGAGAAGAATAGGAACT (double strand) [FRT74]	5	
AGTTCCTATACTGATTGGAGAATAGGAACT (double strand) [FRT65]	18	
AGTTCCTATACTGTAAAAAGAATAGGAACT (double strand) [FRT53]	64	
AGTTCCTATACTGTAATGAGAATAGGAACT (double strand) [FRT34]	34	
AGTTCCTATACTTCCATAAGAATAGGAACT (double strand) [FRT76]	30	
AGTTCCTATACTTCCGAGAGAATAGGAACT (double strand) [FRT43]	14	
AGTTCCTATACTTTAGGTAGAATAGGAACT (double strand) [FRT62]	72	
AGTTCCTATACTTTCTAGAGAATAGGAACT (double strand) [FRT1 (wild-type minimal FRT)]		activity (% excision efficiency relative to FRT1) ([1]; reference pair, 25 mM Tris pH 7.5, 10 mM MgCl2, 5 mM DTT, 30 C 30 min): 100; activity (% co-integrants at 2 h) ([2]; in vitro co-integration FRT1+FRT1, 10 mM MgCl2, 5 mM DTT): 1.03
AGTTCCTATACTTTCTCGAGAATAGGAACT (double strand) [FRT86]	12	
AGTTCCTATACTTTCTGGAGAATAGGAACT (double strand) [FRT87]	93	
AGTTCCTATACTTTCTTGAGAATAGGAACT (double strand) [FRT85]	116	
AGTTCCTATACTTTTCTAAGAATAGGAACT (double strand) [FRT57]	82	
AGTTCCTATACTTTTGTGAGAATAGGAACT (double strand) [FRT69]	9	
AGTTCCTATACTTTTTGAAGAATAGGAACT (double strand) [FRT6]		activity (% co-integrants at 2 h) ([2]; in vitro co-integration FRT6+FRT6, 10 mM MgCl2, 5 mM DTT): 0.27
